Experimental data from IntAct's records for PubMed 29691401.

Target: lmbl3_human L3MBTL3 (UniProt Q96JM7)
Sequence (Q96JM7 whole entry): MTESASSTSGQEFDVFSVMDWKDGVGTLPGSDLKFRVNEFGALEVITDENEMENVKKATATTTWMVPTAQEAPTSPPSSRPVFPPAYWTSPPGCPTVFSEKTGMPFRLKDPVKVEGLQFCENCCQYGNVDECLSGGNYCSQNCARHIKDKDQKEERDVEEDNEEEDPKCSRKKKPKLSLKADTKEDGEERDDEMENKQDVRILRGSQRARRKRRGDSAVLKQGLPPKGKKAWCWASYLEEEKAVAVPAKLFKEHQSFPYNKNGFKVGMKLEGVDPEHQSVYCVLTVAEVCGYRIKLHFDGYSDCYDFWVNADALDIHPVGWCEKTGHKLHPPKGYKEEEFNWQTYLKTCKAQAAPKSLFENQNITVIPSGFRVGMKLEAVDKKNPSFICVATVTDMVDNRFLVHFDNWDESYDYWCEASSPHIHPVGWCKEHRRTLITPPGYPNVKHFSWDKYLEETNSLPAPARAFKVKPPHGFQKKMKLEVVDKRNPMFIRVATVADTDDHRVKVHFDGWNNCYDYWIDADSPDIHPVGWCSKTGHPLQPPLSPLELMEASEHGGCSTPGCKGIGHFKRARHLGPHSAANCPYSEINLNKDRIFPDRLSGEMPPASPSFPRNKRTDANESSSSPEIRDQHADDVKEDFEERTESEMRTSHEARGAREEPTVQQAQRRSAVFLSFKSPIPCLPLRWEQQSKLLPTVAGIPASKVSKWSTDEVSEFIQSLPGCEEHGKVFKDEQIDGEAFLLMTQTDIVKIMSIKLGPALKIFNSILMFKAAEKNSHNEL

Sequence of Transcription factor E2F1 (Homo sapiens), Q01094 K185R (Q01094 whole entry K185R): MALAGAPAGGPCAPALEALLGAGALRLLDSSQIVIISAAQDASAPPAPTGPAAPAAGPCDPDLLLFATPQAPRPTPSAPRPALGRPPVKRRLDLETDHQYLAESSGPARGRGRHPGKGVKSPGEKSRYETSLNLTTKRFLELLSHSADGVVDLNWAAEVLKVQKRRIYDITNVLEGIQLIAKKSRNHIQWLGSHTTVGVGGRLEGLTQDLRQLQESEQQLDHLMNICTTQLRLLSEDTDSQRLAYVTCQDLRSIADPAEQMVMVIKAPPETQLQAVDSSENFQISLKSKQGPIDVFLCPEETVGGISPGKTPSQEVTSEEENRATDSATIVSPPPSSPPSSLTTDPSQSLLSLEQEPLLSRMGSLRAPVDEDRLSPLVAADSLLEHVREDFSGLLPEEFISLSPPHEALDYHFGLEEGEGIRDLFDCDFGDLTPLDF

effect of a mutation on the interaction: disrupting interaction strength
Substance: Transcription factor E2F1 (Homo sapiens), Q01094 K185R
